Measured values as given in patent US20190338048A1.
Where “and” joins values, the source holds several entries; their conditions need not be identical. Equal entries are not always repeated. Where two headings read alike, the source gives them in different places. One block for each substance: values may come before it.

Columns and labels:
[1] = target: CR8071 lambda light chain (L1) with E124K_Y178R, design 2830, System C
[2] = target: CR8071 lambda light chain (L1) with E124K_Y178R, design 2830, System C; experiment: SMCA, LC-MS
[3] = target: CR8071 lambda light chain (L1) with E124R, design 2826; experiment: SMCA: co-expression
[4] = target: CR8071 lambda light chain (L1) with E124R, design 2826; experiment: SMCA LC-MS, System C
[5] = target: SGN-CD19a kappa light chain (L2) with Q124K_T178R, design 2827; experiment: SMCA LC-MS, System B
[6] = target: SGN-CD19a kappa light chain (L2) with Q124K_T178R, design 2827; experiment: SMCA LC-MS, System C
[7] = target: Pertuzumab light chain (kappa) V133L_S176D_T178E, HA-tagged; experiment: LCCA
[8] = target: Pertuzumab light chain (kappa) V133L_S176D_T178E, HA-tagged; experiment: LCCA; remark: listed apart in the source
[9] = target: Pertuzumab light chain (kappa) V133I_S176D_T178E, HA-tagged; experiment: LCCA
[10] = target: Pertuzumab light chain (kappa) V133I_S176E_T178E, HA-tagged; experiment: LCCA
[11] = target: Pertuzumab light chain (kappa) V133L_S176D_T178E, HA-tagged; experiment: LCCA; remark: listed apart in the source
[12] = target: Pertuzumab light chain (kappa) V133L_S176D_T178E, HA-tagged; experiment: LCCA; remark: listed apart in the source
[13] = target: Pertuzumab light chain (kappa) V133L_S176D_T178E, HA-tagged; experiment: LCCA; remark: listed apart in the source
[14] = target: Pertuzumab light chain (kappa) V133L_S176D_T178E, HA-tagged; experiment: LCCA; remark: listed apart in the source
[15] = target: SGN-CD19a kappa light chain (L2) with Q124R_Q160K_T178R, design 2816; experiment: SMCA: co-expression
[16] = target: SGN-CD19a kappa light chain (L2) with Q124R_Q160K_T178R, design 2816; experiment: SMCA LC-MS, System C
[17] = target: Pertuzumab light chain (kappa) V133G_S176D, HA-tagged; experiment: LCCA
[18] = target: CAT-2200 light chain (lambda) V133I_L135K, FLAG-tagged; experiment: LCCA
[19] = target: CAT-2200 light chain (lambda) V133I_L135R_Y178F, FLAG-tagged; experiment: LCCA
[20] = target: CAT-2200 light chain (lambda) Y178K, FLAG-tagged; experiment: LCCA
[21] = target: Pertuzumab light chain (kappa) V133G_S176D, HA-tagged; experiment: LCCA; remark: listed apart in the source
[22] = target: Pertuzumab light chain (kappa) V133G_S176D, HA-tagged; experiment: LCCA; remark: listed apart in the source
[23] = target: CR8071 lambda light chain (L1) with S180E, designs 2816 and 2827; experiment: SMCA: H1, L1, H2, L2 co-expressed in CHO-3E7
[24] = target: CR8071 lambda light chain (L1) with S180E, designs 2816 and 2827; experiment: SMCA LC-MS, System C
[25] = target: SGN-CD19a kappa light chain (L2) with V133G_S176D, design 2188, Systems B and C; experiment: SMCA, LC-MS
[26] = target: SGN-CD19a kappa light chain (L2) with V133G_S176D, design 2188, Systems B and C
[27] = target: CR8071 lambda light chain (L1) with S180E, designs 2816 and 2827; experiment: SMCA: co-expression
[28] = target: CR8071 lambda light chain (L1) with V133G_S176R, design 2188, System C
[29] = target: CR8071 lambda light chain (L1) with V133G_S176R, design 2188, System C; experiment: SMCA, LC-MS
[30] = target: SGN-CD19a kappa light chain L2, design 2830 (T178E_T180E); experiment: SMCA, System B
[31] = target: SGN-CD19a kappa light chain L2, design 2830 (T178E_T180E); experiment: SMCA, System B, LC-MS
[32] = target: SGN-CD19a kappa light chain (L2) with T178E_T180E, design 2830; experiment: SMCA LC-MS, System B
[33] = target: SGN-CD19a kappa light chain (L2) with T178E_T180E, design 2830; experiment: SMCA: co-expression
[34] = target: SGN-CD19a kappa light chain (L2) with T178E_T180E, design 2830, System C; experiment: SMCA, LC-MS
[35] = target: SGN-CD19a kappa light chain (L2) with T178E_T180E, design 2830, System C
[36] = target: Pertuzumab light chain (kappa) S176E_T178E, HA-tagged; experiment: LCCA
[37] = target: Pertuzumab light chain (kappa) S131D_V133G_T178F, HA-tagged; experiment: LCCA
[38] = target: Pertuzumab light chain (kappa) S176E_T178E, HA-tagged; experiment: LCCA; remark: listed apart in the source
[39] = target: Pertuzumab light chain (kappa) S176D_T178E, HA-tagged; experiment: LCCA
[40] = target: Pertuzumab light chain (kappa) S176E_T178E, HA-tagged; experiment: LCCA; remark: listed apart in the source
[41] = target: Pertuzumab light chain (kappa) S131D_V133G_T178F, HA-tagged; experiment: LCCA; remark: listed apart in the source
[42] = target: Pertuzumab light chain (kappa) V133I_S176D_T178E, HA-tagged; experiment: LCCA; remark: listed apart in the source
[43] = target: Pertuzumab light chain (kappa) S131E_V133G_T178F, HA-tagged; experiment: LCCA
[44] = target: SGN-CD19a kappa light chain (L2) with Q124E_Q160E_T180E, design 2826; experiment: SMCA LC-MS, System B
[45] = target: SGN-CD19a kappa light chain (L2) with Q124E_Q160E_T180E, design 2826; experiment: SMCA: co-expression
[46] = target: SGN-CD19a kappa light chain (L2) with Q124E_Q160E_T180E, design 2826; experiment: SMCA LC-MS, System C

Substance: CR8071 full-length IgG1 heavy chain (H1) with L143E_K145T_Q179E, design 2830, System C
% H1L1 Pairing [1]: 28%
Change in % H1L1 Pairing with respect to wild type [2]: -20.4%

Substance: CR8071 heavy chain (H1, lambda arm) with L143E_K145T, design 2826, full-length IgG1 with heterodimeric Fc
% H1L1 Pairing [3]: 27.8%
Change in % H1L1 Pairing with respect to wild type [4]: -40.3%

Substance: Pertuzumab heavy chain Fab construct L124R
H2L2:H2L1 normalized median ratio, H2L2 share [17]: 86%
H2L2:H2L1 normalized median scalar value ln(r1/f1) [17]: 1.8
H2L2:H2L1 normalized median ratio (H2L1 share) [18]: 14%
H2L2:H2L1 normalized median ratio (H2L1 share) [19]: 17%
H2L2:H2L1 normalized median ratio (H2L1 share) [20]: 16%
H2L2:H2L1 normalized median ratio, H2L2 share [21]: 84%
H2L2:H2L1 normalized median scalar value ln(r1/f1) [21]: 1.68
H2L2:H2L1 normalized median ratio, H2L2 share [22]: 83%
H2L2:H2L1 normalized median scalar value ln(r1/f1) [22]: 1.56

Substance: CR8071 heavy chain (H1, lambda arm) with S186R, design 2827, full-length IgG1 with heterodimeric Fc
% H1L1 Pairing [27]: 98.2%
Change in % H1L1 Pairing with respect to wild type [24]: 15.9%

Substance: CR8071 full-length IgG1 heavy chain (H1) with L124E, design 2188, System C
% H1L1 Pairing [28]: 24.9%
Change in % H1L1 Pairing with respect to wild type [29]: -23.5%

Substance: SGN-CD19a heavy chain (H2, kappa arm) with S186R, design 2830, full-length IgG1 with heterodimeric Fc
Change in % H2L2 Pairing with respect to wild type [32]: 44.3%
% H2L2 Pairing [33]: 98.5%

Substance: SGN-CD19a full-length IgG1 heavy chain (H2) with S186R, design 2830, System C
Change in % H2L2 Pairing with respect to wild type [34]: 20%
% H2L2 Pairing [35]: 99.6%

Substance: Pertuzumab heavy chain Fab construct S188K
H2L2:H2L1 normalized median scalar value ln(r1/f1) [36]: 2.71
H2L2:H2L1 normalized median scalar value ln(r1/f1) [37]: 1.5
H2L2:H2L1 normalized median scalar value ln(r1/f1) [38]: 2.67
H2L2:H2L1 normalized median scalar value ln(r1/f1) [39]: 1.41
H2L2:H2L1 normalized median scalar value ln(r1/f1) [40]: 2.75
H2L2:H2L1 normalized median scalar value ln(r1/f1) [41]: 2.22
H2L2:H2L1 normalized median scalar value ln(r1/f1) [42]: 2.33
H2L2:H2L1 normalized median scalar value ln(r1/f1) [43]: 1.67

Substance: SGN-CD19a heavy chain (H2, kappa arm) with Q179K, design 2826, full-length IgG1 with heterodimeric Fc
Change in % H2L2 Pairing with respect to wild type [44]: 35.5%
% H2L2 Pairing [45]: 89.7% and 98%
Change in % H2L2 Pairing with respect to wild type [46]: 26.7%

Continued, values first:

Change in % H2L2 Pairing with respect to wild type [5]: -15.3%
Change in % H2L2 Pairing with respect to wild type [6]: 25.1%
Substance: SGN-CD19a heavy chain (H2, kappa arm) with L143E_K145T_Q179E, design 2827, full-length IgG1 with heterodimeric Fc

H2L2:H2L1 normalized median scalar value ln(r1/f1) [7]: 2.15
H2L2:H2L1 normalized median scalar value ln(r1/f1) [8]: 2.38
H2L2:H2L1 normalized median scalar value ln(r1/f1) [9]: 2.58
H2L2:H2L1 normalized median scalar value ln(r1/f1) [10]: 2.63
H2L2:H2L1 normalized median scalar value ln(r1/f1) [11]: 1.83
H2L2:H2L1 normalized median scalar value ln(r1/f1) [12]: 0.55
H2L2:H2L1 normalized median scalar value ln(r1/f1) [13]: 2.3
H2L2:H2L1 normalized median scalar value ln(r1/f1) [14]: 1.64
Substance: Pertuzumab heavy chain Fab construct V177I_S188K

% H2L2 Pairing [15]: 79.7%
Change in % H2L2 Pairing with respect to wild type [16]: 19.8%
Substance: SGN-CD19a heavy chain (H2, kappa arm) with L143E_K145T, design 2816, full-length IgG1 with heterodimeric Fc

% H1L1 Pairing [23]: 99.3%
Change in % H1L1 Pairing with respect to wild type [24]: 17%
Substance: CR8071 heavy chain (H1, lambda arm) with Q179K, design 2816, full-length IgG1 with heterodimeric Fc

Change in % H2L2 Pairing with respect to wild type [25]: 38.7% and 19.9%
% H2L2 Pairing [26]: 92.9% and 99.5%
Substance: SGN-CD19a full-length IgG1 heavy chain (H2) with L124R, design 2188, Systems B and C

% H2L2 Pairing [30]: 98.5%
Change in % H2L2 Pairing with respect to wild type [31]: 44.3%
Substance: SGN-CD19a heavy chain H2, design 2830 (S186R)
